Earlier results as cited in article PMC12564422.

Biological target: EGFR (epidermal growth factor receptor) (UniProt P00533)
Test: cited
Conditions: 3'-thiol; about 50 nm AuNPs, resuspended in water; aptamer M and Atto 1.2e-7 M, EGFR 880 pM, 1 h incubation; Tris-EDTA buffer listed among materials; salt, pH and …

For “GGACGGATTTAATCGCCGTAGAAAAGCATGTCAAAGCCGGAACCGTCC [aptamer M (EGFR-specific)]”, the Kd is listed as 2.4 nM.
